Measured values from patent US20030119716A1, “Methods for screening, treating and diagnosing G-protein coupled receptor-related disorders and compositions thereof” (Wyeth, priority 2001, published 2003).

How the values were obtained:
Gαi1 = test: cell-based or functional assay
Gαq/i chimera = test: cell-based or functional assay

attenuation of SRE activation (SRE-luciferase reporter, CHO-D2R cells co-transfected with Gαi1) (Gαi1): 25 to 30% | reduction in SRE activation (SRE-luciferase reporter, CHO-D2R cells) (Gαq/i chimera): 70%
B1: human RGS2 (protein, UniProt P41220 1-211, looked up)
chain: MQSAMFLAVQHDCRPMDKSAGSGHKSEEKREKMKRTLLKDWKTRLSYFLQNSSTPGKPKTGKKSKQQAFIKPSPEEAQLWSEAFDELLASKYGLAAFRAFLKSEFCEENIEFWLACEDFKKTKSPQKLSSKARKIYTDFIEKEAPKEINIDFQTKTLIAQNIQEATSGCFTTAQKRVYSLMENNSYPRFLESEFYQDLCKKPQITTEPHAT
